Measured values published in PMC8497992, “Structural and functional characterization explains loss of dNTPase activity of the cancer-specific R366C/H mutant SAMHD1 proteins”.

B1: 6FAM-deoxy(C*G*C*C*T) (ssDNA)
DNA: CGCCT
modifications: * between all nucleotides (probably phosphorothioate; not defined in the material)
B2: 6FAM-ribo(C*G*C*C*U) (ssRNA)
RNA: CGCCU
modifications: * between all nucleotides (probably phosphorothioate; not defined in the material)

Tests used:
Experiment in all cases: fluorescence polarization; 50 mM Tris-HCl pH 8.0, 50 mM KCl, 1 mM EDTA; 50 nM labeled oligonucleotide; temperature not stated
Details in all cases: protein: recombinant; chain copies: 2; label: 5'-6-carboxyfluorescein; single strand
[1] = molecular target: SAMHD1 HD domain R366C (UniProt Q9Y3Z3 114-626, R366C)
SAMHD1 HD domain R366C, sequence (Q9Y3Z3 114-626 R366C): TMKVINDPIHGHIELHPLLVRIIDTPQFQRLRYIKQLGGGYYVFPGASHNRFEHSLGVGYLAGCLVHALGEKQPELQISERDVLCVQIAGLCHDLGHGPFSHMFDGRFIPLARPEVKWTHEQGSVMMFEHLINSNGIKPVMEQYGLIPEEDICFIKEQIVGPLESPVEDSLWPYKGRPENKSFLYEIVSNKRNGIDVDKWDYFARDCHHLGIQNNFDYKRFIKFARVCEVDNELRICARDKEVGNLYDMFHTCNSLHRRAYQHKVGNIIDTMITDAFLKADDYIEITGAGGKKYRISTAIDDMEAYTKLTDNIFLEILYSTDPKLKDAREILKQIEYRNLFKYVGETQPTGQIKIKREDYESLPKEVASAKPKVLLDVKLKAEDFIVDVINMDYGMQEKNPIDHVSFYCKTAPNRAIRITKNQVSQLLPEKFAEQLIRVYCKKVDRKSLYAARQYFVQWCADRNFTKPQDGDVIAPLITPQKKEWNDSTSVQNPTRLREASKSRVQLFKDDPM

[2] = molecular target: SAMHD1 HD domain R366H (UniProt Q9Y3Z3 114-626, R366H)
SAMHD1 HD domain R366H, sequence (Q9Y3Z3 114-626 R366H): as the sequence (Q9Y3Z3 114-626 R366C) above, with C253H counted along it

[3] = molecular target: SAMHD1 HD domain WT (UniProt Q9Y3Z3 114-626)
SAMHD1 HD domain WT, sequence (Q9Y3Z3 114-626): as the sequence (Q9Y3Z3 114-626 R366C) above, with C253R counted along it

Binder | Kd [1] | Kd [2] | Kd [3]
B1 | 689 ± 39 nM | 606 ± 46 nM | 147 ± 8.3 nM
B2 | 1450 ± 51 nM | 1120 ± 42 nM | 154 ± 4.2 nM
